Patent publication US7482133B2, “Catalytic domains of β(1,4)-galactosyltransferase I having altered donor and acceptor specificities, domains that promote in vitro protein folding, and methods for their use” (The United States of America as represented by the …, priority 2003, dated 2009)

Tests used:
[1] = β4Gal-T1 enzyme assay of in vitro folded CD and SRCD proteins; format: biochemical; conditions: folded under condition I
Method: β4Gal-T1 Enzyme Assays: The in vitro assay for β4Gal-T1 enzyme activity was performed as described (Boeggeman et al., Glycobiology, 12:395-407 (2002)). The ^3H-labeled-UDP-Gal was used as sugar donor and GlcNAc as the sugar acceptor. A reaction without GlcNAc was used as a control.
Binding of recombinant proteins to UDP-affinity column: UDP-agarose was used to bind the active proteins at 4° C. Columns containing 1 ml bed volume of UDP-agarose were pre-equilibrated with 10 ml of 25 mM cacodylic buffer, pH 7.6, containing 25 mM MnCl2. The renatured protein solutions (0.5 mg) were adjusted to the pre-equilibration buffer conditions and applied to the columns. After loading the sample, the pass-through was re-cycled. It was then analyzed for the unbound protein by SDS-PAGE. The columns were washed 3× with 1-ml portions of equilibration buffer. The bound protein was eluted with the elution buffer consisting of 25 mM cacodylic buffer, pH 7.6, 25 mM EDTA and 1 M NaCl. Fractions of 0.5 ml were collected from the columns, and aliquots were analysed by SDS-PAGE. For enzymatic analysis the appropriate fractions were pooled and dialysed against 50 mM Tris-HCl pH 8.0 at 4° C. […]

[2] = Stability of the folded recombinant proteins; format: physicochemical; conditions: after folding and purification from inclusion bodies
Method: Mutation of the stem region of bovine β4Gal-T1 to inhibit proteolysis: The wild-type bovine SRCDβ4Gal-T1, which has Ser at position 96, was expressed in E. coli. […] The protein was electroblotted to polyvinylidene difluoride membrane, and the N-terminal sequence of the cleaved fragment was determined by Edman degradation at the Protein Chemistry Laboratory, NCI-Frederick. The N-terminal sequence of the fragment was determined as SRAPSNLD (SEQ ID NO: 21). This corresponds to the cleavage at Ser96 within the sequence region KPR^96SRAPSNLD (SEQ ID NO: 22). To prevent this proteolytic digestion within the stem region, we now constructed a mutant substituting Ala in place of Ser96. This prevented the cleavage within the stem region of bovine β4Gal-T1 keeping the recombinant protein intact for a long period of time. Even though, the experimental results described in this study are with the mutant bovine S96A-SRCDβ4Gal-T1 (FIG. 3A), for the sake of convenience in abbreviation this protein is simply referred to as bovine SRCDβ4Gal-T1.

B1: human SRCDβ4Gal-T1: human stem region/catalytic domain β4Gal-T1, not mutated (protein, listed as Homo sapiens)
chain: RDLSRLPQLVGVSTPLQGGSNSAAAIGQSSGDLRTGGARPPPPLGASSQPRPGGDSSPVVDSGPGPASNLTSVPVPHTTALSLPACPEESPLLVGPMLIEFNMPVDLELVAKQ
[1]
  specific activity after elution from UDP-agarose versus before loading: 6 fold
[2]
  stability against cleavage within the stem region: only after long periods of time
